Data reported in patent US20160243521A1.

Assays:
[1] = target: human polyclonal IgG (Gamma-globulin NICHIYAKU, NIHON PHARMACEUTICAL CO., LTD.) (human); assay: column dynamic binding capacity at 5% breakthrough, residence time 3 min (Test example 2); Protein A 35 g/L on cellulose beads made without crosslinking agent in the dispersion
[2] = target: human polyclonal IgG (Gamma-globulin NICHIYAKU, NIHON PHARMACEUTICAL CO., LTD.) (human); assay: column dynamic binding capacity at 5% breakthrough, residence time 3 min (Test example 2); Protein A 35 g/L on cellulose beads made with crosslinking agent EX-314

Substance: non-orientation-controlled Protein A (from UniProt P38507 37-327) (ligand)
- 5% DBC at RT of 3 min (g per 1 L of the filling adsorbent) [1]: 49
- 5% DBC at RT of 3 min (g per 1 L of the filling adsorbent) [2]: 65
